The target of this assay is T1, human CD70 (human, UniProt P32970 1-193).
T1 construct: whole, on cells; also called CD70 antigen; CD27 ligand
T1 sequence (looked up): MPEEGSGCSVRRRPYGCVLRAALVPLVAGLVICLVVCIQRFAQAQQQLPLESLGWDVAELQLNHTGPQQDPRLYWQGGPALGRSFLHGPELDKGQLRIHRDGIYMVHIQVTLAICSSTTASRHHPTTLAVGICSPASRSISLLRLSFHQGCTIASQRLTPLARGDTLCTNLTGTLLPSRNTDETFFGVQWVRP
The assay can be described thus: flow cytometry on CBNK cells, Raji WT cells and Raji CD70 KO cells. How it is done:
Flow cytometry assay was conducted to detect the binding of various ml, m5, m6, m7, m14, m15, m16, m19, and m22 clones CD70 antibody clones to CD70 antigen expressed in various cells.
For orientation: In flow cytometry, cells or beads pass a laser one at a time.

The source of these data is patent US20240269285A1 (University of Texas, published 2024).

B1: m7 monoclonal anti-human CD70 antibody clone (antibody, V domains shown)
VH: QVQLKQSGPGLVQPSQSLSITCTVSGFSLTSYGVHWVRQSPGKGLEWLGVIWSGGSTDYNAAFISRLSISKDNSKSQVFFKMNSLQANDTAIYYCATYYRYDGWFAYWGQGTLVTVSA
VL: DIVLTQSPASLAVSLGQRATISCRASKSVSTSGYSYMHWYQQKPGQPPKLLIYLASNLESGVPARFSGSGSGTDFTLNIHPVEEEDAATYSCQHSRELPWTFGGGTKLEIK
notes: Purified monoclonal antibody; Detected with a goat anti-mouse IgG-HRP secondary antibody; also called m7-CD70
For B1, the binding result is “binds”.

B2: m14 monoclonal anti-human CD70 antibody clone (antibody, V domains shown)
VH: EVQLQQSGAELVKPGASVKLSCTASGFNIKDSYMHWVKQRPEQGLEWIGRIDPANANPKYDPKFQGKATITTDTSSNTAYLQLSSLTSEDTAVYYCARDYGGYFDVWGAGTTVTVSS
VL: DIQMTQSSSYLSVSLGGRVTITCKASDHINNWLAWYQQKPGNAPRLLISGATSLETGVPSRFSGSGSGKDYTLSITSLQTEDVATYYCQQYWSTPWTFGGGTKLEIK
notes: Purified monoclonal antibody; Detected with a goat anti-mouse IgG-HRP secondary antibody; also called m14-CD70
Take B2: the binding result is listed as “binds”.
